Our source for the Ki, reduction of protease activity (fluorogenic substrate) by 300 nM rFhKT1 and reduction of trypsin activity (fluorogenic substrate) by 300 nM rFhKT1Leu15/Arg15 values is publication PMC5016662.

Experiment [1] concerns the target human cathepsin L (human). Put plainly: enzyme inhibition kinetics (fluorogenic substrate, Morrison tight-binding fit); inhibitor serially diluted (20 to 0.1 nM) against each cysteine protease; 50 mM citrate phosphate buffer pH 5.5, 2 mM DTT, 0.01% Brij L23; 37 °C; substrate at its Km; Ki worked out from the apparent Ki.
The target of experiment [2] is recombinant F. hepatica cathepsin L2 (Fasciola hepatica). The experiment is described as above.
In experiment [3] the target is recombinant F. hepatica cathepsin L1 (Fasciola hepatica). The description is as above.
Experiment [4] addresses human cathepsin K (human) (UniProt P43235). The experiment is described as above.
Experiment [5] concerns the target human cathepsin L (human).
In experiment [6] the target is recombinant F. hepatica cathepsin L2 (Fasciola hepatica).
Experiment [7] deals with recombinant F. hepatica cathepsin L1 (Fasciola hepatica).
Experiment [8] addresses human cathepsin K (human) (UniProt P43235).
The target of experiment [9] is bovine trypsin (bovine).
Experiment [10] has as its target bovine trypsin (bovine). Put plainly: enzyme inhibition kinetics (fluorogenic substrate, Morrison tight-binding fit); inhibitor serially diluted against trypsin (42 nM); 100 mM sodium phosphate buffer pH 7.6, 1 mM HCl, 20 mM Ca, 0.01% Brij L23; substrate Z-Leu-Arg-NHMec.

Chain of human cathepsin K (human) (P43235 115-329): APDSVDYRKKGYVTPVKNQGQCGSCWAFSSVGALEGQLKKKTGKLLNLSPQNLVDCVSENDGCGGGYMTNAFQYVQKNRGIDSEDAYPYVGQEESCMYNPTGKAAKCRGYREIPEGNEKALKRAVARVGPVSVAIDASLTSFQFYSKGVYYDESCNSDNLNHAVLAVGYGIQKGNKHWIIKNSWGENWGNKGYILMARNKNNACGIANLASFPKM

For “recombinant Fasciola hepatica Kunitz-type protease inhibitor FhKT1 (natural protein)”, the Ki worked out at 1.6 nM in experiment [1], 10 nM in experiment [2], 0.4 nM in experiment [3] and 5 nM in [4]. Moreover, the reduction of protease activity (fluorogenic substrate) by 300 nM rFhKT1 was determined as 96.8% in experiment [5], 90.3% in experiment [6], 98.9% in [7] and 99.5% in [8].
Consider “recombinant FhKT1Leu15/Arg15 variant (natural protein)”, for which, in the experiment with bovine trypsin (bovine) [9], the reduction of trypsin activity (fluorogenic substrate) by 300 nM rFhKT1Leu15/Arg15 was 88.9%. In addition, the Ki in experiment [1] came out at 3 nM; in [2], 27 nM; in experiment [3], 0.7 nM; in experiment [4], 10 nM; with bovine trypsin (bovine) [10], 1.5 nM.
